The record followed here is publication PMC3737171, “Genetic Selection for Constitutively Trimerized Human HSF1 Mutants Identifies a Role for Coiled-Coil Motifs in DNA Binding” (G3: Genes|Genomes|Genetics, 2013).

Sequences and labels used below:
B1: human HSF1 H179Y, expressed in hsf1-/- mouse embryonic fibroblasts (natural protein, UniProt Q00613 1-529, looked up)
chain: MDLPVGPGAAGPSNVPAFLTKLWTLVSDPDTDALICWSPSGNSFHVFDQGQFAKEVLPKYFKHNNMASFVRQLNMYGFRKVVHIEQGGLVKPERDDTEFQHPCFLRGQEQLLENIKRKVTSVSTLKSEDIKIRQDSVTKLLTDVQLMKGKQECMDSKLLAMKHENEALWREVASLRQKYAQQQKVVNKLIQFLISLVQSNRILGVKRKIPLMLNDSGSAHSMPKYSRQFSLEHVHGSGPYSAPSPAYSSSSLYAPDAVASSGPIISDITELAPASPMASPGGSIDERPLSSSPLVRVKEEPPSPPQSPRVEEASPGRPSSVDTLLSPTALIDSILRESEPAPASVTALTDARGHTDTEGRPPSPPPTSTPEKCLSVACLDKNELSDHLDAMDSNLDNLQTMLSSHGFSVDTSALLDLFSPSVTVPDMSLPDLDSSLASIQELLSPQEPPRPPEAENSSPDSGKQLVHYTAQPLFLLDPGSVDTGSNDLPVLFELGEGSYFSEGDGFAEDPTISLLTGSEPPKAKDPTVS
notes: human heat shock transcription factor 1 (HSF1) with H179Y between LZ1/2 and LZ3; also called H179Y mutant; source: hsf1-/- MEFs, transfected, in protein extract
B2: human HSF1 L402P, expressed in hsf1-/- mouse embryonic fibroblasts (natural protein, UniProt Q00613 1-529, looked up)
chain: B1 chain with Y179H, L402P
notes: human heat shock transcription factor 1 (HSF1) with L402P in LZ4; also called L402P mutant; source: hsf1-/- MEFs, transfected, in protein extract
B3: human HSF1 L189P, expressed in hsf1-/- mouse embryonic fibroblasts (natural protein, UniProt Q00613 1-529, looked up)
chain: B1 chain with Y179H, L189P
notes: human heat shock transcription factor 1 (HSF1) with L189P in LZ3; also called L189P HSF1 mutant; source: hsf1-/- MEFs, transfected, in protein extract
B4: human HSF1 K178E, expressed in hsf1-/- mouse embryonic fibroblasts (natural protein, UniProt Q00613 1-529, looked up)
chain: B1 chain with K178E, Y179H
notes: human heat shock transcription factor 1 (HSF1) with K178E between LZ1/2 and LZ3; also called K178E mutant; source: hsf1-/- MEFs, transfected, in protein extract
B5: human HSF1 M161I, expressed in hsf1-/- mouse embryonic fibroblasts (natural protein, UniProt Q00613 1-529, looked up)
chain: B1 chain with M161I, Y179H
notes: human heat shock transcription factor 1 (HSF1) with M161I in LZ1-3; also called M161I mutant; source: hsf1-/- MEFs, transfected, in protein extract
B6: human HSF1 M161I, expressed in yeast (natural protein, UniProt Q00613 1-529, looked up)
chain: B1 chain with M161I, Y179H
notes: human heat shock transcription factor 1 (HSF1) with M161I in LZ1-3; Found by random mutagenesis in E. coli XL-1 Red; also called M161I mutant; source: S. cerevisiae PS145, mutant of plasmid pRS423GPD-hHSF1, in total protein extract
B7: human HSF1 L402P, expressed in yeast (natural protein, UniProt Q00613 1-529, looked up)
chain: B1 chain with Y179H, L402P
notes: human heat shock transcription factor 1 (HSF1) with L402P in LZ4; Found by random mutagenesis in E. coli XL-1 Red; also called L402P mutant; source: S. cerevisiae PS145, mutant of plasmid pRS423GPD-hHSF1, in total protein extract
B8: human HSF1 L189P, expressed in yeast (natural protein, UniProt Q00613 1-529, looked up)
chain: B1 chain with Y179H, L189P
notes: human heat shock transcription factor 1 (HSF1) with L189P in LZ3; Found by random mutagenesis in E. coli XL-1 Red; also called L189P HSF1 mutant; source: S. cerevisiae PS145, mutant of plasmid pRS423GPD-hHSF1, in total protein extract
B9: human HSF1 K178E, expressed in yeast (natural protein, UniProt Q00613 1-529, looked up)
chain: B1 chain with K178E, Y179H
notes: human heat shock transcription factor 1 (HSF1) with K178E between LZ1/2 and LZ3; Found by random mutagenesis in E. coli XL-1 Red; also called K178E mutant; source: S. cerevisiae PS145, mutant of plasmid pRS423GPD-hHSF1, in total protein extract
B10: human HSF1 H179Y, expressed in yeast (natural protein, UniProt Q00613 1-529, looked up)
chain: B1 chain
notes: human heat shock transcription factor 1 (HSF1) with H179Y between LZ1/2 and LZ3; Found by random mutagenesis in E. coli XL-1 Red; also called H179Y mutant; source: S. cerevisiae PS145, mutant of plasmid pRS423GPD-hHSF1, in total protein extract

Positions count from the first letter of the chain named. In names and notes the source's numbering stands.

The target in one series is wild-type human HSF1, expressed in hsf1-/- mouse embryonic fibroblasts (human) (UniProt Q00613). Briefly: cross-linking; EGS cross-linking of extracts of transfected hsf1-/- MEFs, without stress and after heat stress; immunoblot for HSF1.
“wild-type human HSF1, expressed in hsf1-/- mouse embryonic fibroblasts (from UniProt Q00613 1-529) (natural protein)” yielded a stoichiometry N of 3.

Another series concerns the molecule itself. Described as above.
With B1, the “stoichiometry N” value was found to be 3. With B2, the “stoichiometry N” value worked out at 3. As to B3, the “stoichiometry N” value was 3. On to B4, for which the “stoichiometry N” value worked out at 3. For B5, the “stoichiometry N” value worked out at 3.

A further series concerns the molecule itself. Put plainly: cross-linking; EGS cross-linking of total protein extracts of yeast PS145 grown on galactose medium; SDS-PAGE and immunoblot with an HSF1-specific antibody.
Consider B6, for which the “stoichiometry N” value is 3. Take B7: the “stoichiometry N” value turned out to be 3.

On to B8, for which the “stoichiometry N” value worked out at 3. Consider B9, for which the “stoichiometry N” value worked out at 3.

Turning to B10, the “stoichiometry N” value was 3.
